For 13 molecules, Relative cAMP EC50 and cAMP Rel EC50, nM (1% HSA) results are on record in patent US20240270821A1, “GIP/GLP1/GCG TRI-RECEPTOR AGONISTS AND USES THEREOF” (priority 2023, published 2024).

Starred links: 1 amine or outer side, 2 acyl side, 3 side chain; linkers in the order of their positions; H or OH if unused. Non-standard residues stand in square brackets, D forms with d. Groups on a side chain read outwards from the residue. No end group written: not given here. *: point of attachment. C18 diacid = O=C(O)CCCCCCCCCCCCCCCCC(=O)*; γGlu = O=C(O)[C@H](CCC(=O)[*:2])N[*:1]; αMe4Pal = C[C@](N)(Cc1ccncc1)C(=O)O; 4Pal = N[C@@H](Cc1ccncc1)C(=O)O; αMeL = CC(C)C[C@](C)(N)C(=O)O; Orn = NCCC[C@H](N)C(=O)O; Aib = CC(C)(N)C(=O)O

Experiment in all cases: cell-based or functional assay
The target of one experiment is hGLP-1R (Homo sapiens, UniProt P43220).
Sequence of hGLP-1R (P43220 24-463): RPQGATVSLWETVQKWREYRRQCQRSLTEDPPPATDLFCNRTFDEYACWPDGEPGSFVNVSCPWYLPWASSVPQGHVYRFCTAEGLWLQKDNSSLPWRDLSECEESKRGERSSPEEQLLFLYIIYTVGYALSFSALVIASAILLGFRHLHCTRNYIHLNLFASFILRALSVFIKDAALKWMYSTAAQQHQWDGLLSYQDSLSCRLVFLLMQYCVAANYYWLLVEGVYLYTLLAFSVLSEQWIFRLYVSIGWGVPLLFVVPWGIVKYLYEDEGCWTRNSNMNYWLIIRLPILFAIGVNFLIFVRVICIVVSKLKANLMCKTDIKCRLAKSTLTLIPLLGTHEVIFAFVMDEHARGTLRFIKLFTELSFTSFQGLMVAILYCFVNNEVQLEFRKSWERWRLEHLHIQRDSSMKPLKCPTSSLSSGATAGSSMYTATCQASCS
For experiment [1], the target named is T1, human GIP receptor (human) (UniProt P48546).
T1 sequence (looked up): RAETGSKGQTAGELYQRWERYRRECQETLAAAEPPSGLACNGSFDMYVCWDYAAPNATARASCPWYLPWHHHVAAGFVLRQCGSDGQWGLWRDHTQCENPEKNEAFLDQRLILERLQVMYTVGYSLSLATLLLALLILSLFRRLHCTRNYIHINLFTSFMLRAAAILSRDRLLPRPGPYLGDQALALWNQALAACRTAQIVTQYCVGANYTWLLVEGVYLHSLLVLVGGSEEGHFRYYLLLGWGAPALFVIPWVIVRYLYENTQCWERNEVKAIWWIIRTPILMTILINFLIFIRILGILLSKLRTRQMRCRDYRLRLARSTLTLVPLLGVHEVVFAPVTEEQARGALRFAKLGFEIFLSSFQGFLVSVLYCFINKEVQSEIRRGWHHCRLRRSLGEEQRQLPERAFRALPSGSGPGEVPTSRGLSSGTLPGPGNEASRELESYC

Experiment [2] addresses human glucagon receptor (human) (UniProt P47871).

Sequence of human glucagon receptor (human) (P47871 26-477): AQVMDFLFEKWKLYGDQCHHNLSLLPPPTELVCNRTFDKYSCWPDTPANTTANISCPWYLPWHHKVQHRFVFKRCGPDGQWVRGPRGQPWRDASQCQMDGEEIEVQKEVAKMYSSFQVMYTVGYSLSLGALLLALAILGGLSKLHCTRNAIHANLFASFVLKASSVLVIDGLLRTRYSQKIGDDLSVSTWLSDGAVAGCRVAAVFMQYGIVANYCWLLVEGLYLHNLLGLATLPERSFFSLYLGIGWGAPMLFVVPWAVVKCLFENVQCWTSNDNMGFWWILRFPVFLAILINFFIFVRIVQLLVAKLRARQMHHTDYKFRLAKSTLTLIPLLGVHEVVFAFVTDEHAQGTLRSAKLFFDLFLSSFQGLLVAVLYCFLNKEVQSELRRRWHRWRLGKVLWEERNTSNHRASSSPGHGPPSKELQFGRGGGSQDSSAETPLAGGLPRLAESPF

B1: Example 1005 (peptide)
chain: YXQGTFTSDXSQXLDXKAQXQFIEYLIAGGPSSGAPPPSGSEE
modifications: not fully specified; synthetic construct; SITE 2: note = 2-Aminoisobutyric Acid; SITE 10: note = 3-(4-Pyridyl)-L-alanine; SITE 13: note = alpha-methyl-leucine; SITE 16: note = L-ornithine; SITE 17: note = Lysine is chemically modified through conjugation of the epsilon-amino group of the Lysine side chain with (gamma-Gl)
As to B1, the Relative cAMP EC50 in the experiment with hGLP-1R stood at 1.48 nM; in experiment [1], 0.152 nM; in experiment [2], 9.46 nM. For the same molecule, the values for the cAMP Rel EC50, nM (1% HSA) (with hGLP-1R; in experiment [1]; in experiment [2]) were 171 nM, 14.5 nM and 1670 nM, respectively.

B2: Example 1027 (peptide)
chain: YXQGTFTSDXSQXLDXKAQXAFIEXLIEGGPSSGEPPPSGSEE
modifications: Aib, 4Pal, αMeL, Orn, Me4Pal, αMeY; lipidated Lys; C-terminal amide; synthetic construct; SITE 2: note = 2-Aminoisobutyric Acid; SITE 10: note = 3-(4-Pyridyl)-L-alanine; SITE 13: note = alpha-methyl-leucine; SITE 16: note = L-ornithine; SITE 17: note = Lysine is chemically modified through conjugation of the epsilon-amino group of the Lysine side chain with (gamma-Gl)
As to B2, the values for the Relative cAMP EC50 (with hGLP-1R; in experiment [1]; in experiment [2]) were 1.23 nM, 0.208 nM and 4.99 nM, respectively. The values for the cAMP Rel EC50, nM (1% HSA) (with hGLP-1R; in experiment [1]; in experiment [2]) were 252 nM, 58.1 nM and 1470 nM, respectively.

B3: Example 1033 (peptide)
chain: YXQGTFTSDXSQXLDXKAQXAFIEYLIAGGPSSGAPPPSGSEE
modifications: Aib, 4Pal, Me4Pal, Orn, alpha-methyl-Leu, lipidated Lys, amide; synthetic construct; SITE 2: note = 2-Aminoisobutyric Acid; SITE 10: note = 3-(4-Pyridyl)-L-alanine; SITE 13: note = alpha-methyl-leucine; SITE 16: note = L-ornithine; SITE 17: note = Lysine is chemically modified through conjugation of the epsilon-amino group of the Lysine side chain with (Glu)2-(g)
For the molecule B3, the values for the cAMP Rel EC50, nM (1% HSA) (with hGLP-1R; in experiment [1]; in experiment [2]) were 221 nM, 23.4 nM and 2170 nM, respectively.

B4: Example 1029 (peptide)
chain: YXQGTFTSDXSQXLDKKAQXAFIEYLIAGGPSSGAPPPSGSEE
modifications: non-natural residues; AEEA-γGlu-C18 diacid on Lys; amide; synthetic construct; SITE 2: note = 2-Aminoisobutyric Acid; SITE 10: note = 3-(4-Pyridyl)-L-alanine; SITE 13: note = alpha-methyl-leucine; SITE 17: note = Lysine is chemically modified through conjugation of the epsilon-amino group of the Lysine side chain with (2-[2-(2-Amino-ethoxy)-ethoxy]-acetyl)
Turning to B4, the values for the cAMP Rel EC50, nM (1% HSA) (with hGLP-1R; in experiment [1]; in experiment [2]) were 170 nM, 22.3 nM and 511 nM, respectively.

B5: Example 1030 (peptide)
chain: YXQGTFTSDXSQXLDKKAQXAFIEYLIAGGPSSGAPPPSGSEE
modifications: synthetic construct; SITE 2: note = 2-Aminoisobutyric Acid; SITE 10: note = 3-(4-Pyridyl)-L-alanine; SITE 13: note = alpha-methyl-leucine; SITE 17: note = Lysine is chemically modified through conjugation of the epsilon-amino group of the Lysine side chain with (Glu)-(gamma-Glu)-CO-(CH2)16-CO2H; SIT
B5: the Relative cAMP EC50 in the experiment with hGLP-1R came to 1.72 nM; in experiment [1], 0.122 nM; in experiment [2], 9.42 nM. Also, the cAMP Rel EC50, nM (1% HSA) with hGLP-1R was 385 nM; in experiment [1] it was 21 nM; in experiment [2] it was 1830 nM.

B6: Example 1028 (peptide)
chain: YXQGTFTSDXSQXLDXKAQXAFIEXLIEGGPSSGEPPPSGSEE
modifications: non-natural residues; lysine acylated with C18 diacid; C-terminal amide; synthetic construct; SITE 2: note = 2-Aminoisobutyric Acid; SITE 10: note = 3-(4-Pyridyl)-L-alanine; SITE 13: note = alpha-methyl-leucine; SITE 16: note = L-ornithine; SITE 17: note = Lysine is chemically modified through conjugation of the epsilon-amino group of the Lysine side chain with (gamma-Gl)
As to B6, the Relative cAMP EC50 turned out to be 1.34 nM in the experiment with hGLP-1R, 0.189 nM in experiment [1] and 5.77 nM in experiment [2]. Further, the cAMP Rel EC50, nM (1% HSA) with hGLP-1R turned out to be 986 nM; in experiment [1], 157 nM; in experiment [2], 3910 nM.

B7: Example 1006 (peptide)
chain: YXQGTFTSDXSQXLDXKAQXQFIEYLLAGGPSSGAPPPSGSEE
modifications: synthetic construct; SITE 2: note = 2-Aminoisobutyric Acid; SITE 10: note = 3-(4-Pyridyl)-L-alanine; SITE 13: note = alpha-methyl-leucine; SITE 16: note = L-ornithine; SITE 17: note = Lysine is chemically modified through conjugation of the epsilon-amino group of the Lysine side chain with (gamma-Gl)
Consider B7, for which the Relative cAMP EC50 stood at 5.12 nM with hGLP-1R, 0.109 nM in experiment [1] and 4.28 nM in experiment [2]. In addition, the cAMP Rel EC50, nM (1% HSA) with hGLP-1R worked out at 574 nM; in experiment [1], 11.8 nM; in experiment [2], 315 nM.

B8: Example 1031 (peptide)
chain: YXQGTFTSDXSQXLDXKAQXAFIEYLIAGGPSSGAPPPSGSEE
modifications: non-natural residues; C18 diacid-(γ-Glu)2 acyl on Lys; C-terminal amide; synthetic construct; SITE 2: note = 2-Aminoisobutyric Acid; SITE 10: note = 3-(4-Pyridyl)-L-alanine; SITE 13: note = alpha-methyl-leucine; SITE 16: note = L-ornithine; SITE 17: note = Lysine is chemically modified through conjugation of the epsilon-amino group of the Lysine side chain with (gamma-Gl)
As to B8, the cAMP Rel EC50, nM (1% HSA) amounted to 152 nM with hGLP-1R, 17.3 nM in experiment [1] and 1200 nM in experiment [2].

B9: Example 1032 (peptide)
chain: Y[Aib]QGTFTSD[4Pal]SQ[αMeL]LD[Orn]KK([Glu-γGlu-C18 diacid])AQ[αMe4Pal]AFIEYLIAGGPSSGAPPPSGSEE-NH2
As for B9, the cAMP Rel EC50, nM (1% HSA) with hGLP-1R came to 148 nM; in experiment [1], 21.9 nM; in experiment [2], 900 nM.

B10: Example 1008 (peptide)
chain: YXQGTFTSDXSQXLDXKAQXAFIEYLIAGGPSSGEPPPSGSE
modifications: synthetic construct; SITE 2: note = 2-Aminoisobutyric Acid; SITE 10: note = 3-(4-Pyridyl)-L-alanine; SITE 13: note = alpha-methyl-leucine; SITE 16: note = L-ornithine; SITE 17: note = Lysine is chemically modified through conjugation of the epsilon-amino group of the Lysine side chain with (gamma-Gl)
B10: the Relative cAMP EC50 with hGLP-1R is 1.09 nM; in experiment [1], 0.14 nM; in experiment [2], 7.47 nM. Further, the values for the cAMP Rel EC50, nM (1% HSA) (with hGLP-1R; in experiment [1]; in experiment [2]) were 126 nM, 15.2 nM and 1010 nM, respectively.

B11: Example 1024 (peptide)
chain: YXQGTFTSDXSQXLDKKAQXAFIEYLIEAGPSSGAPPPSGSE
modifications: Aib, 4Pal, αMeL, Me4Pal; K acylated AEEA-(γGlu)2-C18 diacid; amide; synthetic construct; SITE 2: note = 2-Aminoisobutyric Acid; SITE 10: note = 3-(4-Pyridyl)-L-alanine; SITE 13: note = alpha-methyl-leucine; SITE 17: note = Lysine is chemically modified through conjugation of the epsilon-amino group of the Lysine side chain with (2-[2-(2-Amino-ethoxy)-ethoxy]-acetyl)
On to B11, for which the cAMP Rel EC50, nM (1% HSA) in the experiment with hGLP-1R is 330 nM; in experiment [1], 32.5 nM; in experiment [2] it was 760 nM.

B12: Example 1025 (peptide)
chain: YXQGTFTSDXSQXLDKKAQXAFIEYLIEAGPSSGAPPPSGSE
modifications: synthetic construct; SITE 2: note = 2-Aminoisobutyric Acid; SITE 10: note = 3-(4-Pyridyl)-L-alanine; SITE 13: note = alpha-methyl-leucine; SITE 17: note = Lysine is chemically modified through conjugation of the epsilon-amino group of the Lysine side chain with (gamma-Glu)2-CO-(CH2)16-CO2H; SITE 20:
B12: the Relative cAMP EC50 with hGLP-1R worked out at 2.45 nM; in experiment [1] it was 0.18 nM; in experiment [2] it was 3.22 nM. In addition, the cAMP Rel EC50, nM (1% HSA) with hGLP-1R stood at 352 nM; in experiment [1] it was 31.5 nM; in experiment [2], 625 nM.

B13: Example 1023 (peptide)
chain: YXQGTFTSDXSQXLDXKAQXAFIEYLIEAGPSSGAPPPSGSE
modifications: not fully specified; acylated lysine (γGlu)2-C18 diacid; non-natural residues; C-terminal amide; synthetic construct; SITE 2: note = 2-Aminoisobutyric Acid; SITE 10: note = 3-(4-Pyridyl)-L-alanine; SITE 13: note = alpha-methyl-leucine; SITE 16: note = L-ornithine; SITE 17: note = Lysine is chemically modified through conjugation of the epsilon-amino group of the Lysine side chain with (gamma-Gl)
On to B13, for which the cAMP Rel EC50, nM (1% HSA) with hGLP-1R amounted to 230 nM; in experiment [1], 26 nM; in experiment [2], 856 nM.
